The text below walks through data of paper PMC4966504 (mAbs, 2015).

Positions count from the first letter of the chain named. Numbers in names are those of the source.

Among the targets are human CXCR4 A175D (Homo sapiens, UniProt P61073-1, A175D); human CXCR4 E179A (Homo sapiens, UniProt P61073-1, E179A); human CXCR4 A180D (Homo sapiens, UniProt P61073-1, A180D); human CXCR4 D182A (Homo sapiens, UniProt P61073-1, D182A); human CXCR4 D181A (Homo sapiens, UniProt P61073-1, D181A); human CXCR4 P191A (Homo sapiens, UniProt P61073-1, P191A); human CXCR4 N176VSE179A4 (Homo sapiens, UniProt P61073, N176VSE179A4); human CXCR4 D187RFY190A4 (Homo sapiens, UniProt P61073, D187RFY190A4); human CXCR4 L194W195A2 (Homo sapiens, UniProt P61073, L194W195A2).

Holding throughout (assay): flow cytometry on cells
For orientation: In flow cytometry, cells or beads pass a laser one at a time.

Test [1] concerns the target human CXCR4, endogenous on 293X cells (Homo sapiens, UniProt P61073).
Test [2] addresses human CXCR4 (G-protein C-X-C chemokine receptor 4), expressed on CHO cells (Homo sapiens, UniProt P61073-1).
In test [3] the target is human CXCR4 D181DRYI185A5 (Homo sapiens, UniProt P61073, D181DRYI185A5).

B1: MEDI3185 variant VH W52/Y52A/D53 to Ala (CDR2H) (antibody, V domains shown)
VH: QVQLVESGGGVVQPGRSLRLSCAASGFTFSNYVMHWVRQAPGKGLEWVAVIAAAGSNKYYADSVKGRFTISRDNSKNTLSLQMNSLRAEDTAVYYCERGEGYYGSGSRYRGYYYGMDVWGQGTTVTVSS
VL: DIQMTQSPSSLSASVGDRVTITCRASQGIRTDLGWYQQKPGKAPKRLIYAASSLQSGVPSRFSGSGSGTEFTLTISSLQPEDFATYYCLQHNSYPRTFGQGTKVEIK
B1: the binding result in test [1] is “binds”.

B2: MEDI3185 variant VL A50/A51 to Gly, S52 to Ala (CDR2L) (antibody, V domains shown)
VH: B1 VH with A52W, A53Y, A54D
VL: B1 VL with A50G, A51G, S52A
Consider B2, for which the binding result in [1] is recorded as “binds”.

B3: MEDI3185 variant VL P95 to Ala (CDR3L) (antibody, V domains shown)
VH: B1 VH with A52W, A53Y, A54D
VL: B1 VL with P95A
Regarding B3, the binding result in [1] is recorded as “binds”.

B4: MEDI3185 (antibody, V domains shown)
VH: B1 VH with A52W, A53Y, A54D
VL: B1 VL
With B4, the Kd amounted to 0.32 nM in [2]; 0.21 nM with human CXCR4 A175D; 0.25 nM in the test with human CXCR4 E179A; 0.32 nM with human CXCR4 A180D; 0.32 nM with human CXCR4 D182A; 0.31 nM in the test with human CXCR4 D181A. For the same molecule, the Kd with human CXCR4 P191A was 0.36 nM; with human CXCR4 N176VSE179A4, 0.37 nM; in test [3] it was 0.28 nM; in the test with human CXCR4 D187RFY190A4 it was 0.37 nM; in the test with human CXCR4 L194W195A2, 0.3 nM.

B5: MEDI3185 variant VL N92/S93/Y94 to Ala (CDR3L) (antibody, V domains shown)
VH: B1 VH with A52W, A53Y, A54D
VL: B1 VL with N92A, S93A, Y94A
Consider B5, for which the binding result in test [1] is recorded as “binds”.

B6: MEDI3185 variant VH G54/S55/N56 to Ala (CDR2H) (antibody, V domains shown)
VH: B1 VH with A52W, A53Y, A54D, G55A, S56A, N57A
VL: B1 VL
B6: the binding result in test [1] was “binds”.

B7: MEDI3185 variant VH N31A/Y32A/V33A (CDR1H) (antibody, V domains shown)
VH: B1 VH with N31A, Y32A, V33A, A52W, A53Y, A54D
VL: B1 VL
Consider B7, for which the binding result in test [1] is “binds”.

B8: MEDI3185 variant VL Q27A/G28A/I29A (CDR1L) (antibody, V domains shown)
VH: B1 VH with A52W, A53Y, A54D
VL: B1 VL with Q27A, G28A, I29A
Consider B8, for which the binding result in test [1] was “binds”.

Usually Kd stands for the free concentration of one partner at which half of the binding sites on the other are occupied at equilibrium, for simple one-to-one binding. Low values mean a tighter complex, high ones a looser complex.
